Data published in patent US20030124664.

Biological target: human growth hormone (hGH) with the N-terminal phenylalanine, expressed and secreted from plasmid phGH4R, P01241
Sequence (P01241 27-217): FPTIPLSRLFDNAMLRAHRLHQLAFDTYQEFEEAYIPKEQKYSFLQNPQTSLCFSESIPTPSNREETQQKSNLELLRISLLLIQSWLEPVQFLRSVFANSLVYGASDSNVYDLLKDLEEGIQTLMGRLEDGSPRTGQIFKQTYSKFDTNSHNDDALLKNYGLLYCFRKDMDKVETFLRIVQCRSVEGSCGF

B1: native-sequence aminopeptidase b2324 (product of the E. coli chromosomal yfcK gene) (protein)
chain: MRSLTHIAKIEPPPVRRVTYVKHYSIQPANLEFNAEGTPVSRDFDDVYFSNDNGLEETRYVFLGGNQLEVRFPEHPHPLFVVAESGFGTGLNFLTLWQAFDQFREAHPQAQLQRLHFISFEKFPLTRADLALAHQHWPELAPWAEQLQAQWPMPLPGCHRLLLDEGRVTLDLWFGDINELTSQLDDSLNQKVDAWFLDGFAPAKNPDMWTQNLFNAMARLARPGGTLATFTSAGFVRRGLQDAGFTMQKRKGFGRKREMLCGVMEQTLPLPCSAPWFNRTGSSKREAAIIGGGIASALLSLALLRRGWQVTLYCADEAPALGASGNRQGALYPLLSKHDEALNRFFSNAFTFARRFYDQLPVKFDHDWCGVTQLGWDEKSQHKIAQMLSMDLPAELAVAVEANAVEQITGVATNCSGITYPQGGWLCPAELTRNVLELAQQQGLQIYYQYQLQNLSRKDDCWLLNFAGDQQATHSVVVLANGHQISRFSQTSTLPVYSVAGQVSHIPTTPELAELKQVLCYDGYLTPQNPANQHHCIGASYHRGSEDTAYSEDDQQQNRQRLIDCFPQAQWAKEVDVSDKEARCGVRCATRDHLPMVGNVPDYEATLVEYASLAEQKDEAVSAPVFDDLFMFAALGSRGLCSAPLCAEILAAQMSDEPIPMDASTLAALNPNRLWVRKLLKGKAVKAG
  N-terminal cleavage of hGH in crude lysate (LC-MS), yfcK deletion strain against control: virtually no phenylalanine-cleaved impurities after 15 hours of incubation at 37 °C
